Drawing on publication PMC314469, “Protein Interaction Networks by Proteome Peptide Scanning” (PLoS Biology, 2004), this text covers normalised SPOT signal, Boehringer light units (BLU); mean over the file's lines of this peptide for 39 molecules.

The labels stand for the following.
B1: YMR131C 92-104 (peptide)
chain: KIQELYLPHMSRP
B2: YBR143C 103-116 (peptide)
chain: KEKKVTFDIEPYKP
B3: YOR093C 1313-1326 (peptide)
chain: KGVRNIMIPFPNRP
B4: YFL034W 914-926 (peptide)
chain: KKHNSWVPKWLKP
B5: YDL143W 233-246 (peptide)
chain: KIGLIQFQISPPKP
B6: YNL110C 11-23 (peptide)
chain: KETVTKQPTEEKP
B7: YDR182W 159-172 (peptide)
chain: KEYTRFNQIFPKKP
B8: YPL008W 3-16 (peptide)
chain: KKEYSETFYHPYKP
B9: YBR033W 108-120 (peptide)
chain: KFSSDNDPLQYRP
B10: YDL193W 7-19 (peptide)
chain: KDDKAMEPPNEKP
B11: YMR228W 312-325 (peptide)
chain: IYLTKLFMEWPFKP
B12: YLR305C 1008-1021 (peptide)
chain: KELSRLTYYGPEKP
B13: YDL117W 113-126 (peptide)
chain: KKLSSSMPNSPKKP
B14: YOR188W 88-101 (peptide)
chain: KGPDVEFLMIPFRP
B15: YKL211C 326-338 (peptide)
chain: KILDLKFPPKERP
B16: YBR261C 84-97 (peptide)
chain: KHAAKIDLVEPVKP
B17: YBR260C 525-538 (peptide)
chain: KDPANISMILPSKP
B18: YFR023W 33-46 (peptide)
chain: KKISFNPVVTPIRP
B19: YDR463W 278-290 (peptide)
chain: KARHVLYPKGVKP
B20: YHR102W 306-319 (peptide)
chain: KIEGSIPENEPSKP
B21: YMR104C 605-618 (peptide)
chain: KKLLLKGYIPPYKP
B22: YLR087C 2329-2341 (peptide)
chain: KHSTDEKPNFTKP
B23: YMR049C 639-652 (peptide)
chain: KGIIMDAKFHPFKP
B24: YLR234W 517-530 (peptide)
chain: KAEMKAGTTAPPKP
B25: YDR301W 1056-1069 (peptide)
chain: IYDVIEVVPEPGKP
B26: YJL008C 549-561 (peptide)
chain: KAGGPRAPQGPRP
B27: YOL075C 641-653 (peptide)
chain: KKIKKKSPTGMKP
B28: YGR202C 91-103 (peptide)
chain: KGFRFNLPPTDRP
B29: YNL173C 323-336 (peptide)
chain: KKIEAKKATRPSKP
B30: YNL167C 92-104 (peptide)
chain: KDSPSFLPGQQRP
B31: YGL009C 527-540 (peptide)
chain: KDIPVKSDDTPAKP
B32: YBR108W 81-93 (peptide)
chain: KDPKSFPPPPLKP
B33: YAL024C 394-406 (peptide)
chain: KFMSAIKPANQKP
B34: YGR175C 289-301 (peptide)
chain: KDVQPFIPKSLRP
B35: YBR058C 403-415 (peptide)
chain: KSEPELYPNGIKP
B36: YHL007C 233-246 (peptide)
chain: KHKQHKPKVKPSKP
B37: YIL077C 15-27 (peptide)
chain: KGMENELPFMKRP
B38: YOR168W 156-168 (peptide)
chain: KELKWADPRSFKP
B39: YGL207W 456-469 (peptide)
chain: KKKSSPATKVPSKP

The test addresses T1, Abp1 SH3 (ABP1_YEAST), P15891.
T1 chain: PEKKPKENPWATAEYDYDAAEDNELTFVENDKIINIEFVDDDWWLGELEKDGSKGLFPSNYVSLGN
Briefly: SPOT array.
The molecule B1 displayed a normalised SPOT signal, Boehringer light units (BLU); mean over the file's lines of this peptide of 166.
As for B2, the normalised SPOT signal, Boehringer light units (BLU); mean over the file's lines of this peptide worked out at 63.6.
Consider B3, for which the normalised SPOT signal, Boehringer light units (BLU); mean over the file's lines of this peptide worked out at 273.
Molecule B4 gave a normalised SPOT signal, Boehringer light units (BLU); mean over the file's lines of this peptide of 194.
With B5 the figure was 40.5; with B6, 94.1; with B7, 54.
With B8 the figure was 109; with B9, 71.3.
With B10 the figure was 118.
Regarding B11, the normalised SPOT signal, Boehringer light units (BLU); mean over the file's lines of this peptide worked out at 118.
In turn, B12 registered a normalised SPOT signal, Boehringer light units (BLU); mean over the file's lines of this peptide of 116.
Regarding B13, the normalised SPOT signal, Boehringer light units (BLU); mean over the file's lines of this peptide is 153.
Molecule B14 gave a normalised SPOT signal, Boehringer light units (BLU); mean over the file's lines of this peptide of 114.
Regarding B15, the normalised SPOT signal, Boehringer light units (BLU); mean over the file's lines of this peptide came out at 257.
B16 displayed a normalised SPOT signal, Boehringer light units (BLU); mean over the file's lines of this peptide of 121.
As for B17, the figure is 112; as for B18, 0; as for B19, 174.
In turn, B20 yielded a normalised SPOT signal, Boehringer light units (BLU); mean over the file's lines of this peptide of 97.5.
With B21 the figure was 95.9; with B22, 125; with B23, 898.
With B24 the figure was 211.
B25 showed a normalised SPOT signal, Boehringer light units (BLU); mean over the file's lines of this peptide of 80.4.
In turn, B26 registered a normalised SPOT signal, Boehringer light units (BLU); mean over the file's lines of this peptide of 209.
Take B27: the normalised SPOT signal, Boehringer light units (BLU); mean over the file's lines of this peptide amounted to 120.
B28: the normalised SPOT signal, Boehringer light units (BLU); mean over the file's lines of this peptide was determined as 166.
B29 returned a normalised SPOT signal, Boehringer light units (BLU); mean over the file's lines of this peptide of 80.
As to B30, the normalised SPOT signal, Boehringer light units (BLU); mean over the file's lines of this peptide is 71.8.
Turning to B31, the normalised SPOT signal, Boehringer light units (BLU); mean over the file's lines of this peptide came to 75.1.
B32 displayed a normalised SPOT signal, Boehringer light units (BLU); mean over the file's lines of this peptide of 1320.
The molecule B33 displayed a normalised SPOT signal, Boehringer light units (BLU); mean over the file's lines of this peptide of 2680.
The molecule B34 yielded a normalised SPOT signal, Boehringer light units (BLU); mean over the file's lines of this peptide of 2320.
As for B35, the figure is 13.7.
The molecule B36 registered a normalised SPOT signal, Boehringer light units (BLU); mean over the file's lines of this peptide of 13.3.
The molecule B37 yielded a normalised SPOT signal, Boehringer light units (BLU); mean over the file's lines of this peptide of 332.
With B38 the figure was 378; with B39, 65.
